Experimental data from the supplement of paper PMC9112550, “Optimization of the antimicrobial peptide Bac7 by deep mutational scanning” (BMC Biology, 2022).
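Further: peptides expressed intracellularly from a pBAD plasmid library in pooled LB shake-flask culture, induced with 0.3% L-arabinose, DNA abundance read by NGS, three biological replicates, DESeq2 with apeglm shrinkage.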

The sequences below were run on Escherichia coli TOP10 (assay: shrunken log2 fold change of peptide-encoding DNA abundance (4.5 h post-induction vs induction); higher = less antimicrobial activity (less host growth inhibition)). Details: time post-induction: 4.5 h; library: site-saturation at positions 5, 18, 19, 20.
With RRIRWRPPRLPRPRPRPTQFPRP the “shrunken log2 fold change” value was 0.0858. In the case of RRIRWRPPRLPRPRPRPTREPRP, the “shrunken log2 fold change” value is reported as 0.241. In the case of RRIRWRPPRLPRPRPRPTRQPRP, the “shrunken log2 fold change” value is reported as 0.195. For RRIRWRPPRLPRPRPRPTRVPRP, the “shrunken log2 fold change” value was 0.825. In the case of RRIRWRPPRLPRPRPRPTTFPRP, the “shrunken log2 fold change” value is reported as -0.09. In the case of RRIRWRPPRLPRPRPRPTTIPRP, the “shrunken log2 fold change” value is reported as 0.127. RRIRWRPPRLPRPRPRPTTQPRP was tested, and the “shrunken log2 fold change” value was -0.0204. With RRIRWRPPRLPRPRPRPTVHPRP the “shrunken log2 fold change” value was -0.189. RRIRWRPPRLPRPRPRPTVPPRP was tested, and the “shrunken log2 fold change” value was 0.0399. In the case of RRIRWRPPRLPRPRPRPTYCPRP, the “shrunken log2 fold change” value is reported as -0.126. With RRIRWRPPRLPRPRPRPTYTPRP the “shrunken log2 fold change” value was -0.136. RRIRWRPPRLPRPRPRPTYWPRP was tested, and the “shrunken log2 fold change” value was 0.235. For RRIRWRPPRLPRPRPRPVACPRP, the “shrunken log2 fold change” value was -0.052. RRIRWRPPRLPRPRPRPVCEPRP was tested, and the “shrunken log2 fold change” value was 0.825. In the case of RRIRWRPPRLPRPRPRPVCFPRP, the “shrunken log2 fold change” value is reported as 0.376. RRIRWRPPRLPRPRPRPVCPPRP was tested, and the “shrunken log2 fold change” value was 0.142. With RRIRWRPPRLPRPRPRPVDNPRP the “shrunken log2 fold change” value was -0.018. For RRIRWRPPRLPRPRPRPVEDPRP, the “shrunken log2 fold change” value was 0.00386. RRIRWRPPRLPRPRPRPVESPRP was tested, and the “shrunken log2 fold change” value was 0.0647. RRIRWRPPRLPRPRPRPVEYPRP was tested, and the “shrunken log2 fold change” value was -0.00674. For RRIRWRPPRLPRPRPRPVFCPRP, the “shrunken log2 fold change” value was 0.119. In the case of RRIRWRPPRLPRPRPRPVHDPRP, the “shrunken log2 fold change” value is reported as 0.141. For RRIRWRPPRLPRPRPRPVHTPRP, the “shrunken log2 fold change” value was 0.627. With RRIRWRPPRLPRPRPRPVHVPRP the “shrunken log2 fold change” value was 0.109. For RRIRWRPPRLPRPRPRPVIAPRP, the “shrunken log2 fold change” value was 0.037. RRIRWRPPRLPRPRPRPVIIPRP was tested, and the “shrunken log2 fold change” value was -0.219. For RRIRWRPPRLPRPRPRPVIMPRP, the “shrunken log2 fold change” value was -0.273. For RRIRWRPPRLPRPRPRPVKEPRP, the “shrunken log2 fold change” value was -0.0992. With RRIRWRPPRLPRPRPRPVKRPRP the “shrunken log2 fold change” value was 0.015. For RRIRWRPPRLPRPRPRPVMAPRP, the “shrunken log2 fold change” value was 0.171. For RRIRWRPPRLPRPRPRPVMVPRP, the “shrunken log2 fold change” value was 0.0467. With RRIRWRPPRLPRPRPRPVNGPRP the “shrunken log2 fold change” value was -0.295. In the case of RRIRWRPPRLPRPRPRPVNIPRP, the “shrunken log2 fold change” value is reported as 0.0116. For RRIRWRPPRLPRPRPRPVNPPRP, the “shrunken log2 fold change” value was 0.0699. For RRIRWRPPRLPRPRPRPVPDPRP, the “shrunken log2 fold change” value was -0.101. RRIRWRPPRLPRPRPRPVSMPRP was tested, and the “shrunken log2 fold change” value was -0.00416. With RRIRWRPPRLPRPRPRPVSSPRP the “shrunken log2 fold change” value was 0.117. RRIRWRPPRLPRPRPRPVTGPRP was tested, and the “shrunken log2 fold change” value was 0.183. For RRIRWRPPRLPRPRPRPVTTPRP, the “shrunken log2 fold change” value was -0.0727. In the case of RRIRWRPPRLPRPRPRPVVCPRP, the “shrunken log2 fold change” value is reported as 0.301. With RRIRWRPPRLPRPRPRPVVDPRP the “shrunken log2 fold change” value was 0.0903. In the case of RRIRWRPPRLPRPRPRPVVIPRP, the “shrunken log2 fold change” value is reported as -0.101. In the case of RRIRWRPPRLPRPRPRPVVPPRP, the “shrunken log2 fold change” value is reported as 0.242. RRIRWRPPRLPRPRPRPVVWPRP was tested, and the “shrunken log2 fold change” value was 0.626. In the case of RRIRWRPPRLPRPRPRPVWFPRP, the “shrunken log2 fold change” value is reported as 0.563. With RRIRWRPPRLPRPRPRPVWLPRP the “shrunken log2 fold change” value was 0.284. With RRIRWRPPRLPRPRPRPVWVPRP the “shrunken log2 fold change” value was 0.257. With RRIRWRPPRLPRPRPRPVWWPRP the “shrunken log2 fold change” value was 0.729. With RRIRWRPPRLPRPRPRPVYPPRP the “shrunken log2 fold change” value was -0.104. In the case of RRIRWRPPRLPRPRPRPVYSPRP, the “shrunken log2 fold change” value is reported as -0.104. For RRIRWRPPRLPRPRPRPVYTPRP, the “shrunken log2 fold change” value was -0.242. With RRIRWRPPRLPRPRPRPVYVPRP the “shrunken log2 fold change” value was -0.231. RRIRWRPPRLPRPRPRPWAPPRP was tested, and the “shrunken log2 fold change” value was 0.479. RRIRWRPPRLPRPRPRPWASPRP was tested, and the “shrunken log2 fold change” value was 0.014. For RRIRWRPPRLPRPRPRPWATPRP, the “shrunken log2 fold change” value was 0.168. For RRIRWRPPRLPRPRPRPWCSPRP, the “shrunken log2 fold change” value was -0.329. For RRIRWRPPRLPRPRPRPWDAPRP, the “shrunken log2 fold change” value was 0.22. With RRIRWRPPRLPRPRPRPWDRPRP the “shrunken log2 fold change” value was 0.215. RRIRWRPPRLPRPRPRPWEKPRP was tested, and the “shrunken log2 fold change” value was 0.624. In the case of RRIRWRPPRLPRPRPRPWFSPRP, the “shrunken log2 fold change” value is reported as 0.0565. For RRIRWRPPRLPRPRPRPWIPPRP, the “shrunken log2 fold change” value was -0.0989. For RRIRWRPPRLPRPRPRPWKCPRP, the “shrunken log2 fold change” value was -0.01. With RRIRWRPPRLPRPRPRPWLGPRP the “shrunken log2 fold change” value was 0.00929. In the case of RRIRWRPPRLPRPRPRPWNHPRP, the “shrunken log2 fold change” value is reported as -0.0518. For RRIRWRPPRLPRPRPRPWNVPRP, the “shrunken log2 fold change” value was 0.0207. For RRIRWRPPRLPRPRPRPWQAPRP, the “shrunken log2 fold change” value was 0.00325. With RRIRWRPPRLPRPRPRPWQCPRP the “shrunken log2 fold change” value was -0.233. RRIRWRPPRLPRPRPRPWQPPRP was tested, and the “shrunken log2 fold change” value was -0.0542. RRIRWRPPRLPRPRPRPWRPPRP was tested, and the “shrunken log2 fold change” value was 0.178. With RRIRWRPPRLPRPRPRPWRVPRP the “shrunken log2 fold change” value was -0.245. With RRIRWRPPRLPRPRPRPWSFPRP the “shrunken log2 fold change” value was -0.0355. With RRIRWRPPRLPRPRPRPWVIPRP the “shrunken log2 fold change” value was 0.00419. In the case of RRIRWRPPRLPRPRPRPWVNPRP, the “shrunken log2 fold change” value is reported as -0.183. With RRIRWRPPRLPRPRPRPWWHPRP the “shrunken log2 fold change” value was 0.357. RRIRWRPPRLPRPRPRPWYWPRP was tested, and the “shrunken log2 fold change” value was -0.209. For RRIRWRPPRLPRPRPRPYCCPRP, the “shrunken log2 fold change” value was -0.569. RRIRWRPPRLPRPRPRPYCKPRP was tested, and the “shrunken log2 fold change” value was -0.864. With RRIRWRPPRLPRPRPRPYDGPRP the “shrunken log2 fold change” value was -0.337. RRIRWRPPRLPRPRPRPYDNPRP was tested, and the “shrunken log2 fold change” value was -0.263. In the case of RRIRWRPPRLPRPRPRPYEEPRP, the “shrunken log2 fold change” value is reported as -0.334. RRIRWRPPRLPRPRPRPYEKPRP was tested, and the “shrunken log2 fold change” value was -0.139. RRIRWRPPRLPRPRPRPYGKPRP was tested, and the “shrunken log2 fold change” value was 0.027. For RRIRWRPPRLPRPRPRPYGVPRP, the “shrunken log2 fold change” value was 0.00576. In the case of RRIRWRPPRLPRPRPRPYIFPRP, the “shrunken log2 fold change” value is reported as -0.242. RRIRWRPPRLPRPRPRPYKKPRP was tested, and the “shrunken log2 fold change” value was -0.225. In the case of RRIRWRPPRLPRPRPRPYLGPRP, the “shrunken log2 fold change” value is reported as -0.616. For RRIRWRPPRLPRPRPRPYMMPRP, the “shrunken log2 fold change” value was -0.842. With RRIRWRPPRLPRPRPRPYPYPRP the “shrunken log2 fold change” value was 0.0754. For RRIRWRPPRLPRPRPRPYQQPRP, the “shrunken log2 fold change” value was -0.0018. With RRIRWRPPRLPRPRPRPYRIPRP the “shrunken log2 fold change” value was -0.209. With RRIRWRPPRLPRPRPRPYSAPRP the “shrunken log2 fold change” value was -0.147. RRIRWRPPRLPRPRPRPYTKPRP was tested, and the “shrunken log2 fold change” value was 0.000534. For RRIRWRPPRLPRPRPRPYTLPRP, the “shrunken log2 fold change” value was -0.681. In the case of RRIRWRPPRLPRPRPRPYWNPRP, the “shrunken log2 fold change” value is reported as -0.645. For RRIRYRPPRLPRPRPRPAAAPRP, the “shrunken log2 fold change” value was 0.455. For RRIRYRPPRLPRPRPRPAATPRP, the “shrunken log2 fold change” value was 0.208. With RRIRYRPPRLPRPRPRPACFPRP the “shrunken log2 fold change” value was -0.166. For RRIRYRPPRLPRPRPRPACKPRP, the “shrunken log2 fold change” value was -0.0277. RRIRYRPPRLPRPRPRPACWPRP was tested, and the “shrunken log2 fold change” value was 0.47. With RRIRYRPPRLPRPRPRPACYPRP the “shrunken log2 fold change” value was -0.553. In the case of RRIRYRPPRLPRPRPRPAEMPRP, the “shrunken log2 fold change” value is reported as -1.02. With RRIRYRPPRLPRPRPRPAGCPRP the “shrunken log2 fold change” value was -0.177. In the case of RRIRYRPPRLPRPRPRPAGTPRP, the “shrunken log2 fold change” value is reported as -0.0595. In the case of RRIRYRPPRLPRPRPRPAHWPRP, the “shrunken log2 fold change” value is reported as 0.0585. In the case of RRIRYRPPRLPRPRPRPAIHPRP, the “shrunken log2 fold change” value is reported as -0.406. RRIRYRPPRLPRPRPRPAKIPRP was tested, and the “shrunken log2 fold change” value was -0.0227. RRIRYRPPRLPRPRPRPALGPRP was tested, and the “shrunken log2 fold change” value was 0.0458. RRIRYRPPRLPRPRPRPALLPRP was tested, and the “shrunken log2 fold change” value was -0.0984. RRIRYRPPRLPRPRPRPALPPRP was tested, and the “shrunken log2 fold change” value was -0.0414.
